Reference: the supplement of paper PMC9732359
± gives the uncertainty stated by the source.

Assay: protein stability index of a GFP-peptide fusion (yeast GPS) (PSI 1-4); higher = more stable; sorted into four equal gates, so the index is relative within each strain
Summary of the method: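 Plasmids in a pooled yeast library fused tiled 17-residue yeast protein peptides downstream of GFP and also expressed Cherry. Mid-log cultures grown without leucine were sorted into four equal gates by GFP/Cherry fluorescence ratio. Each gate's plasmids were PCR-amplified and Illumina-sequenced, and reads were matched to strains by barcodes. The protein stability index is derived by multiplying each gate's read frequency by its gate number and summing the results.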

Row | Sequence | protein stability index (doa10∆) | protein stability index (pdr5∆) | protein stability index (san1∆) | protein stability index (ubr1∆)
1 | EHAKWGPAAAIEFEYDP [RPB3] | 2.54 ± 0.078 | 3.01 ± 0.074 | 2.36 ± 0.07 | 3.09 ± 0.075
2 | IDYSNSQIRLYAKFKRN [RGR1] | 3.1 ± 0.093 | 2.46 ± 0.1 | 2.45 ± 0.091 | 2.8 ± 0.057
3 | KAFEERHQAGKNQWFFS [RPL27A] | 2.87 ± 0.097 | 3.14 ± 0.11 | 2.65 ± 0.11 | 3.03 ± 0.055
4 | YAVKAVENGTTSIGIKC [PRE10] | 2.04 ± 0.11 | 2.02 ± 0.076 | 1.36 ± 0.21 | 2.77 ± 0.19
5 | SILSFVDKELLEPGCSV [RPT2] | 2.75 ± 0.077 | 2.86 ± 0.071 | 2.3 ± 0.078 | 3.01 ± 0.066
6 | ASLHSKELTRIPGEEVE [MED4] | 2.97 ± 0.12 | 3.29 ± 0.18 | 3.03 ± 0.12 | –
7 | AFAGSKNDEVLGLLLPI [RPN1] | – | 3.2 ± 0.14 | 3.05 ± 0.17 | 3.19 ± 0.13
8 | PASDDILDNINHNGSAL [ITC1] | 2.9 ± 0.1 | 3.21 ± 0.096 | 3.06 ± 0.095 | 3.29 ± 0.078
9 | NNKITQLIAKNVANVSG [SIR3] | 1.7 ± 0.067 | 1.88 ± 0.063 | 2.07 ± 0.094 | 2.35 ± 0.054
10 | TSAIEVLVGSCAYTGTG [RPN1] | 3.06 ± 0.067 | 3.35 ± 0.062 | 3.29 ± 0.06 | 3.28 ± 0.093
11 | HLGERAASVIGMLVALG [RPC82] | 2.05 ± 0.23 | 1.71 ± 0.1 | 1.75 ± 0.21 | 2.04 ± 0.067
12 | DLLDMIQFGAKNMFEKK [ISW2] | 3.25 ± 0.14 | 3.29 ± 0.24 | 3 ± 0.16 | –
13 | NLEPLIAKLVAVLNVSP [NUT1] | 1.47 ± 0.064 | 1.38 ± 0.066 | 1.69 ± 0.14 | 1.43 ± 0.057
14 | VTLFQMAILLLYNDADV [CDC53] | 2.03 ± 0.057 | 1.79 ± 0.051 | 1.67 ± 0.099 | 1.96 ± 0.041
15 | NRHNLLNDVVSFLFSAI [SWI1] | 2.19 ± 0.077 | 2.58 ± 0.05 | 2.4 ± 0.067 | 2.4 ± 0.043
16 | RLQQQQAQAQAQANNNN [GAL11] | 2.03 ± 0.093 | 2.55 ± 0.078 | 2.74 ± 0.076 | 2.04 ± 0.06
17 | ISAEDRADTDLAMNDDD [SNF2] | 3.44 ± 0.23 | 3.45 ± 0.14 | 3.35 ± 0.069 | 3.32 ± 0.085
18 | QGLAMVEKYAPDVVRSL [RRP42] | 2.25 ± 0.15 | 2.47 ± 0.16 | 2.3 ± 0.15 | 2.72 ± 0.13
19 | LKIIHTSVWAGQKRLSQ [PRP8] | 1.36 ± 0.15 | 1.31 ± 0.12 | – | 1.48 ± 0.23
20 | QAQAQAQAQAQAQAQAH [GAL11] | 2.84 ± 0.071 | 3.05 ± 0.084 | 2.84 ± 0.084 | 3.1 ± 0.1
21 | EPYVAYGYPSYSTIRQL [RPL7A] | 1.87 ± 0.044 | 2.14 ± 0.048 | 2.14 ± 0.058 | 2.23 ± 0.036
22 | VIGGNSLFHIVVDTEET [SMC3] | 2.73 ± 0.099 | 2.78 ± 0.091 | 2.54 ± 0.076 | 2.53 ± 0.06
23 | LNDPSLKIQFILSTTLD [SIN4] | 1.11 ± 0.055 | 1.45 ± 0.074 | 1.32 ± 0.14 | 1.18 ± 0.042
24 | QCPVKSAEDQLYAITFR [QCR2] | 3.14 ± 0.12 | 2.83 ± 0.25 | 3.13 ± 0.14 | 3.09 ± 0.16
25 | NEVKEWAVTLDTSRPDL [DSN1] | 2.96 ± 0.11 | 3.15 ± 0.091 | 3.02 ± 0.052 | 3.15 ± 0.041
26 | WSKESNYDCKVISIVGG [PRP28] | 3.06 ± 0.11 | 3.06 ± 0.11 | 2.31 ± 0.097 | 2.74 ± 0.094
27 | HRLLQRALFRQLKRWYW [RMP1] | 2.29 ± 0.18 | 1.2 ± 0.12 | 1.22 ± 0.17 | 1.35 ± 0.11

Row | Sequence | protein stability index (doa10∆) | protein stability index (pdr5∆) | protein stability index (san1∆) | protein stability index (ubr1∆)
28 | YKATATGPKQQEITTNL [SCL1] | 3.17 ± 0.064 | 3 ± 0.11 | 2.93 ± 0.057 | 3.29 ± 0.078
29 | LQGQMEKIMILLVPLAL [CSN12] | 1.84 ± 0.048 | 1.63 ± 0.04 | 1.3 ± 0.074 | 1.52 ± 0.045
30 | ISSRTFGQRAVLKFAAH [RPS0A] | 2.35 ± 0.095 | 2.57 ± 0.098 | 2.69 ± 0.089 | 2.49 ± 0.11
31 | SNIPRGSVIQTHIAESA [MCD1] | 2.81 ± 0.1 | 2.88 ± 0.084 | 2.62 ± 0.09 | 2.91 ± 0.051
32 | HINKKSQLDLFLRTMKL [GRR1] | 1.94 ± 0.067 | 2.33 ± 0.076 | 1.21 ± 0.11 | 2.02 ± 0.1
33 | LTEGGSILEEKIAVLNN [SMC1] | 3.31 ± 0.22 | 2.85 ± 0.15 | 3.32 ± 0.11 | 2.87 ± 0.28
34 | LSNLHESNKRYRFFKKI [SNF12] | 2.79 ± 0.12 | 2.68 ± 0.081 | 2.9 ± 0.08 | 2.24 ± 0.065
35 | IPSLQNNIEENLRLLNS [ECM29] | 3.13 ± 0.065 | 3.17 ± 0.061 | 3.34 ± 0.055 | 3.25 ± 0.061
36 | AHEIIKREEKAMTIYWD [CDC53] | 2.03 ± 0.087 | 2.18 ± 0.064 | – | 2.2 ± 0.05
37 | SHISASASPHLAPNMQL [SNF2] | 2.92 ± 0.041 | 2.83 ± 0.04 | 2.93 ± 0.033 | 3.1 ± 0.032
38 | FTLLDFKKQMQTIMKMG [SRP54] | 1.36 ± 0.13 | 2.67 ± 0.15 | 1.42 ± 0.17 | 2.71 ± 0.17
39 | TTAVDALQKGLKDLMDL [RPC19] | 3.58 ± 0.23 | 2.79 ± 0.26 | 2.9 ± 0.12 | 3.02 ± 0.13
40 | YQELGSLQSSSQTQLEN [MED2] | 2.96 ± 0.11 | 3.3 ± 0.082 | 3.08 ± 0.08 | 3.17 ± 0.072
41 | DNDFIINDFKKIGRENE [POP5] | 3.33 ± 0.071 | 3.38 ± 0.072 | 3.3 ± 0.057 | 3.35 ± 0.047
42 | DKQGWTPLFHALAEGHG [NAS6] | 2.75 ± 0.2 | 2.34 ± 0.098 | 2.99 ± 0.13 | 3.01 ± 0.17
43 | TLEQKVNLENPIPIAVL [FAS1] | 1.35 ± 0.048 | 1.4 ± 0.041 | 1.57 ± 0.095 | 1.39 ± 0.028
44 | AHVNKVTEETTKQIQSV [SIR4] | 2.81 ± 0.095 | 2.89 ± 0.078 | 2.98 ± 0.041 | 2.53 ± 0.061
45 | TEEKCKNFIESESVGAF [YJL039C/NUP192] | 3.43 ± 0.15 | 3.23 ± 0.088 | 3.33 ± 0.062 | 3.47 ± 0.056
46 | NFSNVTDLTNNSTDGAK [YIL149C/MLP2] | 2.82 ± 0.041 | 3.15 ± 0.046 | 3.41 ± 0.035 | 2.85 ± 0.034
47 | SRDLDISSSTQCLRFLK [POP6] | 2.46 ± 0.1 | 2.24 ± 0.05 | 2.7 ± 0.14 | 3.05 ± 0.061
48 | IRYNAKRRNWRRTKMNI [RPL39] | 3.23 ± 0.095 | 3.23 ± 0.093 | 3.07 ± 0.095 | 3.32 ± 0.057
49 | LPPPPPPPGLDELETKA [PRP8] | 3.13 ± 0.056 | 3.15 ± 0.057 | 3.25 ± 0.05 | 3.17 ± 0.05
50 | NELERNRKIYQFTLYDR [SMC3] | 1.5 ± 0.23 | 2.45 ± 0.1 | 2.31 ± 0.14 | 2.88 ± 0.1
51 | ESGEDEAEFSLRELSCC [RRP46] | 3.24 ± 0.05 | 3.12 ± 0.075 | 3.2 ± 0.064 | 3.16 ± 0.066
52 | KFMTNSTAFVPTIEYVQ [ARP9] | 2.22 ± 0.062 | 2.65 ± 0.048 | 2.83 ± 0.076 | 2.62 ± 0.041
53 | QRQDFERVRLRPEQLSN [SNF6] | 1.98 ± 0.05 | 2.43 ± 0.062 | 2.21 ± 0.064 | 2.25 ± 0.034
